According to patent US6653533 (PURDUE RESEARCH FOUNDATION, dated 1997):

Molecular target: T1, Pti6 (Solanum lycopersicum (Tomato) …, UniProt O04682 1-248, limits assumed)
T1 construct: Tested as a yeast two-hybrid prey expressed from vector pJG4-5; also called prey of Pti6 (in pJG4-5)
Test: yeast two-hybrid (LEU2 and lacZ reporters), Bicoid bait in pEG202, prey in pJG4-5
Protocol: Figure 2: FIG. 2 sets forth results of the Experiment described in Example 1 herein. Briefly, EGY48 yeast cells containing a prey of Pti4, Pti5 or Pti6 (in pJG4–5), and a bait of Pto, pto or Bicoid (in pEG202) were grown on galactose Ura⁻His⁻Trp⁻X-Gal medium. The plates were incubated at 30° C. for three days and photographed. Four independent, representative colonies are shown for each bait/prey combination.
Yeast strains carrying the Pto bait and a prey of Pti4, Pti5 or Pti6 grew in the absence of leucine, indicative of the LEU2 reporter gene activation. When grown on X-Gal plates, these yeast cells were blue as a result of the lacZ reporter gene activation. As determined by the intensity of blue color, the strength of interaction of Pto with these three preys is in the order of Pti6>Pti4>Pti5.

T1 sequence (O04682 whole entry): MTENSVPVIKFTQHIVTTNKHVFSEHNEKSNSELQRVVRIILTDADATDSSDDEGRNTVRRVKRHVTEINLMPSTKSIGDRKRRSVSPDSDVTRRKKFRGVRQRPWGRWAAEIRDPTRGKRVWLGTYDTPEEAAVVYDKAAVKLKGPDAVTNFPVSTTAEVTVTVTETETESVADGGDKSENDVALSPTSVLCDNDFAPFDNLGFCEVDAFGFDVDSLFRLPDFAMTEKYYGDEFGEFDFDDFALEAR

- binding result: no binding
B1: Bicoid (other, UniProt P09081 2-160, looked up)
chain: AQPPPDQNFYHHPLPHTHTHPHPHSHPHPHSHPHPHHQHPQLQLPPQFRNPFDLLFDERTGAINYNYIRPYLPNQMPKPDVFPSEELPDSLVMRRPRRTRTTFTSSQIAELEQHFLQGRYLTAPRLADLSAKLALGTAQVKIWFKNRRRRHKIQSDQHK
notes: Control bait expressed from vector pEG202; also called arbitrary bait Bicoid (in pEG202)
